Assay results as given in the supplement of paper PMC9112550, “Optimization of the antimicrobial peptide Bac7 by deep mutational scanning” (BMC Biology, 2022).

These sequences were tested on Escherichia coli TOP10 (assay: shrunken log2 fold change of peptide-encoding DNA abundance (4.5 h post-induction vs induction); higher = less antimicrobial activity (less host growth inhibition)). Settings: time post-induction: 4.5 h; library: site-saturation at positions 5, 18, 19, 20.
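Further: peptides expressed intracellularly from a pBAD plasmid library in pooled LB shake-flask culture, induced with 0.3% L-arabinose, DNA abundance read by NGS, three biological replicates, DESeq2 with apeglm shrinkage.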

Sequence | shrunken log2 fold change
RRIRERPPRLPRPRPRPYRFPRP | -0.708
RRIRVRPPRLPRPRPRPHDLPRP | -0.226
RRIRGRPPRLPRPRPRPTAWPRP | 1.84
RRIRARPPRLPRPRPRPVRYPRP | 2.39
RRIRNRPPRLPRPRPRPAKMPRP | -0.0794
RRIRCRPPRLPRPRPRPVHTPRP | 0.101
RRIRHRPPRLPRPRPRPATLPRP | -0.24
RRIRMRPPRLPRPRPRPWGIPRP | 0.0388
RRIRIRPPRLPRPRPRPNGIPRP | -0.337
RRIRWRPPRLPRPRPRPWGCPRP | 0.423
RRIRIRPPRLPRPRPRPCNDPRP | -0.0787
RRIRFRPPRLPRPRPRPHMIPRP | -0.395
RRIRGRPPRLPRPRPRPDIMPRP | 0.0438
RRIRWRPPRLPRPRPRPPTRPRP | 0.578
RRIRCRPPRLPRPRPRPCRFPRP | -0.178
RRIRTRPPRLPRPRPRPEYQPRP | 0.066
RRIRRRPPRLPRPRPRPRRPPRP | 0.639
RRIRSRPPRLPRPRPRPLGGPRP | 0.455
RRIRIRPPRLPRPRPRPHKNPRP | -0.528
RRIRTRPPRLPRPRPRPYSTPRP | -0.0702
RRIRPRPPRLPRPRPRPEIEPRP | 0.0922
RRIRMRPPRLPRPRPRPTIKPRP | 0.0703
RRIRYRPPRLPRPRPRPWPVPRP | 0.0536
RRIRDRPPRLPRPRPRPYSWPRP | 0.016
RRIRTRPPRLPRPRPRPMFDPRP | -0.0585

Sequence | shrunken log2 fold change
RRIRARPPRLPRPRPRPKNQPRP | 0.249
RRIRGRPPRLPRPRPRPRWMPRP | 0.297
RRIRGRPPRLPRPRPRPNIHPRP | 0.0679
RRIRKRPPRLPRPRPRPGFLPRP | 0.203
RRIRHRPPRLPRPRPRPLGTPRP | -0.129
RRIRDRPPRLPRPRPRPQTCPRP | 0.0864
RRIRWRPPRLPRPRPRPHKQPRP | -0.0365
RRIRFRPPRLPRPRPRPDNRPRP | -0.0149
RRIRKRPPRLPRPRPRPPHCPRP | 1.19
RRIRPRPPRLPRPRPRPCACPRP | -0.129
RRIRYRPPRLPRPRPRPQKIPRP | -0.524
RRIRCRPPRLPRPRPRPRIIPRP | -0.443
RRIRKRPPRLPRPRPRPWSIPRP | -0.304
RRIRLRPPRLPRPRPRPNMPPRP | -0.265
RRIRWRPPRLPRPRPRPFLDPRP | -0.233
RRIRQRPPRLPRPRPRPMMMPRP | -0.327
RRIRMRPPRLPRPRPRPIARPRP | 0.184
RRIRNRPPRLPRPRPRPSSKPRP | -0.244
RRIRSRPPRLPRPRPRPKTHPRP | -0.0477
RRIRMRPPRLPRPRPRPDYYPRP | -0.111
RRIRARPPRLPRPRPRPWKMPRP | -0.235
RRIRARPPRLPRPRPRPSSRPRP | -0.167
RRIRHRPPRLPRPRPRPVRFPRP | 0.106
RRIRKRPPRLPRPRPRPINLPRP | -0.00204
RRIRTRPPRLPRPRPRPSMWPRP | 0.103

Sequence | shrunken log2 fold change
RRIRYRPPRLPRPRPRPANEPRP | 0.0338
RRIRERPPRLPRPRPRPNCTPRP | -0.102
RRIRWRPPRLPRPRPRPPSEPRP | 0.456
RRIRTRPPRLPRPRPRPDNIPRP | -0.38
RRIRARPPRLPRPRPRPDQKPRP | 0.442
RRIRIRPPRLPRPRPRPYKGPRP | -0.018
RRIRMRPPRLPRPRPRPYEGPRP | -0.13
RRIRIRPPRLPRPRPRPLWVPRP | 0.0248
RRIRFRPPRLPRPRPRPLLEPRP | -0.0853
RRIRKRPPRLPRPRPRPWSMPRP | -0.0905
RRIRVRPPRLPRPRPRPNTEPRP | -0.665
RRIRKRPPRLPRPRPRPALNPRP | 0.589
RRIRDRPPRLPRPRPRPDIPPRP | 0.213
RRIRKRPPRLPRPRPRPEAIPRP | 0.101
RRIRQRPPRLPRPRPRPGQEPRP | -0.018
RRIRNRPPRLPRPRPRPMPYPRP | 0.0291
RRIRIRPPRLPRPRPRPRNWPRP | 0.18
RRIRSRPPRLPRPRPRPSAPPRP | 0.287
RRIRKRPPRLPRPRPRPCRDPRP | -0.136
RRIRDRPPRLPRPRPRPTYQPRP | -0.0238
RRIRMRPPRLPRPRPRPMWHPRP | 0.208
RRIRFRPPRLPRPRPRPSHLPRP | -0.737
RRIRPRPPRLPRPRPRPFPRPRP | 0.0474
RRIRKRPPRLPRPRPRPQMHPRP | 0.0713
RRIRARPPRLPRPRPRPHYWPRP | -0.658
